Source: IntAct's records for PubMed 23208550

B1: Arrestin domain-containing protein 3 (Homo sapiens), Q96B67 (parent)
chain: MVLGKVKSLTISFDCLNDSNVPVYSSGDTVSGRVNLEVTGEIRVKSLKIHARGHAKVRWTESRNAGSNTAYTQNYTEEVEYFNHKDILIGHERDDDNSEEGFHTIHSGRHEYAFSFELPQTPLATSFEGRHGSVRYWVKAELHRPWLLPVKLKKEFTVFEHIDINTPSLLSPQAGTKEKTLCCWFCTSGPISLSAKIERKGYTPGESIQIFAEIENCSSRMVVPKAAIYQTQAFYAKGKMKEVKQLVANLRGESLSSGKTETWNGKLLKIPPVSPSILDCSIIRVEYSLMVYVDIPGAMDLFLNLPLVIGTIPLHPFGSRTSSVSSQCSMNMNWLSLSLPERPEAPPSYAEVVTEEQRRNNLAPVSACDDFERALQGPLFAYIQEFRFLPPPLYSEIDPNPDQSADDRPSCPSR

Key:
[1] = variants of: B1; details: with nedd4_human NEDD4, P46934
nedd4_human NEDD4, P46934, sequence (P46934 whole entry): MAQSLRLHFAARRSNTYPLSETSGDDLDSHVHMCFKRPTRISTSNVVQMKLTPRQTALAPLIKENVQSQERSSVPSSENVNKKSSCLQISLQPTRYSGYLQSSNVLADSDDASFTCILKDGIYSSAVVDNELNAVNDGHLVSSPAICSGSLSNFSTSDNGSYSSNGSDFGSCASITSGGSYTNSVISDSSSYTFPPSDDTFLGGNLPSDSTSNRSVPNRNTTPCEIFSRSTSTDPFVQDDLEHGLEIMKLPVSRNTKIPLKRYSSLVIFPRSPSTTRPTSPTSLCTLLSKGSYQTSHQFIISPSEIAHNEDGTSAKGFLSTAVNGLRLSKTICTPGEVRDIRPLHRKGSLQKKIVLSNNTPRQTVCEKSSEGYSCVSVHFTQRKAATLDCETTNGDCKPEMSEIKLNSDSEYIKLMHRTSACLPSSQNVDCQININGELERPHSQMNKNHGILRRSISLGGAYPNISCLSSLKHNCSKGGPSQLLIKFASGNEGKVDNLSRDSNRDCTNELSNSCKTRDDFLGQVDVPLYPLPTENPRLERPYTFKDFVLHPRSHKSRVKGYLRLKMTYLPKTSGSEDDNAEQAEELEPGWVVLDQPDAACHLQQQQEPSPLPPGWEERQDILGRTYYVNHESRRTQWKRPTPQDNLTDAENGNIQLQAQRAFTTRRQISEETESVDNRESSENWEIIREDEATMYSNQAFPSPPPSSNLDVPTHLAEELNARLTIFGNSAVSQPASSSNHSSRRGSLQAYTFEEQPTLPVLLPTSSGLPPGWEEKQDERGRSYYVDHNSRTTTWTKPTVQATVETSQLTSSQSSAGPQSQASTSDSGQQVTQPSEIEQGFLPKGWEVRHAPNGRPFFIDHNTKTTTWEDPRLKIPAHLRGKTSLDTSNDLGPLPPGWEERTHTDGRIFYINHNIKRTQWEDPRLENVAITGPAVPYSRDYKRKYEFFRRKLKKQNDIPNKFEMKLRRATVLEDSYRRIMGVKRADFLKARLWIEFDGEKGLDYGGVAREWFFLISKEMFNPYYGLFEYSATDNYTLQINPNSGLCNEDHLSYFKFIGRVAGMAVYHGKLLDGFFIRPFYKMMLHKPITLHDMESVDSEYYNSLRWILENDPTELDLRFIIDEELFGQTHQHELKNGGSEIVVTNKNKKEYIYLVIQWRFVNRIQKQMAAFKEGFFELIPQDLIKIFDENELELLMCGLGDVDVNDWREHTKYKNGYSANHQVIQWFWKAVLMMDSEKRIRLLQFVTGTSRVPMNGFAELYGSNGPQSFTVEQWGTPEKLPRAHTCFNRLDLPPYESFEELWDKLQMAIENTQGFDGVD

hgs_human HGS, O14964 = variants of: B1; details: with hgs_human HGS
hgs_human HGS, O14964, sequence (O14964 whole entry): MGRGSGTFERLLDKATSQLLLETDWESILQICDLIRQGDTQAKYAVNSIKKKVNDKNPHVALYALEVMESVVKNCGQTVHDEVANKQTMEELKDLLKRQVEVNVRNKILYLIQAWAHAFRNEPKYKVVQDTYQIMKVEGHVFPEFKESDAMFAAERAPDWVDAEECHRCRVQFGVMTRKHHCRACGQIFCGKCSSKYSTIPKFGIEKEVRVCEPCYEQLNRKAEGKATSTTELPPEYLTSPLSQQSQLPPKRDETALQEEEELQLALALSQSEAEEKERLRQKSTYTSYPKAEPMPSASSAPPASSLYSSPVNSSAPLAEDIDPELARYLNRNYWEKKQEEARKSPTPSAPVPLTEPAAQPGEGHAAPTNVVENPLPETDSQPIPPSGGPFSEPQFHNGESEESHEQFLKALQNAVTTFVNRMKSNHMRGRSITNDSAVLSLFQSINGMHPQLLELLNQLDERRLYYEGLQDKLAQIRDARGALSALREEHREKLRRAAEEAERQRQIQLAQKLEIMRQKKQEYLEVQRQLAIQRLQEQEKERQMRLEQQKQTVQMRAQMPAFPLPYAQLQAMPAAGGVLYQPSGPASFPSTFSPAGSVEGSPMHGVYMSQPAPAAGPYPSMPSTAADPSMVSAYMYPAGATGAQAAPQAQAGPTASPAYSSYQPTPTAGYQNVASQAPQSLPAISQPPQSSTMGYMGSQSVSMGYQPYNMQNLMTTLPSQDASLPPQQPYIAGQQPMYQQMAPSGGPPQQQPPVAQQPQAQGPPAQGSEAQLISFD

[2] = variants of: B1; details: with adrb2_human ADRB2, P07550
[3] = variants of: B1; details: with adrb2_human ADRB2, P07550; remark: listed apart in the source

Row | Variant | effect of a mutation on the interaction [1] | effect of a mutation on the interaction (hgs_human HGS, O14964) | effect of a mutation on the interaction [2] | effect of a mutation on the interaction [3]
1 | MVLGKVKSLTISFDCLNDSNVPVYSSGDTVSGRVNLEVTGEIRVKSLKIHARGHAKVRWTESRNAGSNTAYTQNYTEEVEYFNHKDILIGHERDDDNSEEGFHTIHSGRHEYAFSFELPQTPLATSFEGRHGSVRYWVKAELHRPWLLPVKLKKEFTVFEHIDINTPSLLSPQAGTKEKTLCCWFCTSGPISLSAKIERKGYTPGESIQIFAEIENCSSRMVVPKAAIYQTQAFYAKGKMKEVKQLVANLRGESLSSGKTETWNGKLLKIPPVSPSILDCSIIRVEYSLMVYVDIPGAMDLFLNLPLVIGTIPLHPFGSRTSSVSSQCSMNMNWLSLSLPERPEAPASYAEVVTEEQRRNNLAPVSACDDFERALQGPLFAYIQEFRFLPPPLYSEIDPNPDQSADDRPSCPSR [P347A] | disrupting interaction | disrupting interaction | decreasing interaction | disrupting interaction
2 | MVLGKVKSLTISFDCLNDSNVPVYSSGDTVSGRVNLEVTGEIRVKSLKIHARGHAKVRWTESRNAGSNTAYTQNYTEEVEYFNHKDILIGHERDDDNSEEGFHTIHSGRHEYAFSFELPQTPLATSFEGRHGSVRYWVKAELHRPWLLPVKLKKEFTVFEHIDINTPSLLSPQAGTKEKTLCCWFCTSGPISLSAKIERKGYTPGESIQIFAEIENCSSRMVVPKAAIYQTQAFYAKGKMKEVKQLVANLRGESLSSGKTETWNGKLLKIPPVSPSILDCSIIRVEYSLMVYVDIPGAMDLFLNLPLVIGTIPLHPFGSRTSSVSSQCSMNMNWLSLSLPERPEAPPSYAEVVTEEQRRNNLAPVSACDDFERALQGPLFAYIQEFRFLPPPLASEIDPNPDQSADDRPSCPSR [Y394A] | disrupting interaction | disrupting interaction | decreasing interaction | disrupting interaction
3 | MVLGKVKSLTISFDCLNDSNVPVYSSGDTVSGRVNLEVTGEIRVKSLKIHARGHAKVRWTESRNAGSNTAYTQNYTEEVEYFNHKDILIGHERDDDNSEEGFHTIHSGRHEYAFSFELPQTPLATSFEGRHGSVRYWVKAELHRPWLLPVKLKKEFTVFEHIDINTPSLLSPQAGTKEKTLCCWFCTSGPISLSAKIERKGYTPGESIQIFAEIENCSSRMVVPKAAIYQTQAFYAKGKMKEVKQLVANLRGESLSSGKTETWNGKLLKIPPVSPSILDCSIIRVEYSLMVYVDIPGAMDLFLNLPLVIGTIPLHPFGSRTSSVSSQCSMNMNWLSLSLPERPEAPPSYAEVVTEEQRRNNLAPVSACDDFERALQGPLFAYIQEFRFLPAPLYSEIDPNPDQSADDRPSCPSR [P391A] | disrupting interaction | disrupting interaction | decreasing interaction | disrupting interaction
4 | MVLGKVKSLTISFDCLNDSNVPVYSSGDTVSGRVNLEVTGEIRVKSLKIHARGHAKVRWTESRNAGSNTAYTQNYTEEVEYFNHKDILIGHERDDDNSEEGFHTIHSGRHEYAFSFELPQTPLATSFEGRHGSVRYWVKAELHRPWLLPVKLKKEFTVFEHIDINTPSLLSPQAGTKEKTLCCWFCTSGPISLSAKIERKGYTPGESIQIFAEIENCSSRMVVPKAAIYQTQAFYAKGKMKEVKQLVANLRGESLSSGKTETWNGKLLKIPPVSPSILDCSIIRVEYSLMVYVDIPGAMDLFLNLPLVIGTIPLHPFGSRTSSVSSQCSMNMNWLSLSLPERPEAPPSAAEVVTEEQRRNNLAPVSACDDFERALQGPLFAYIQEFRFLPPPLYSEIDPNPDQSADDRPSCPSR [Y349A] | disrupting interaction | disrupting interaction | decreasing interaction | disrupting interaction
5 | MVLGKVKSLTISFDCLNDSNVPVYSSGDTVSGRVNLEVTGEIRVKSLKIHARGHAKVRWTESRNAGSNTAYTQNYTEEVEYFNHKDILIGHERDDDNSEEGFHTIHSGRHEYAFSFELPQTPLATSFEGRHGSVRYWVKAELHRPWLLPVKLKKEFTVFEHIDINTPSLLSPQAGTKEKTLCCWFCTSGPISLSAKIERKGYTPGESIQIFAEIENCSSRMVVPKAAIYQTQAFYAKGKMKEVKQLVANLRGESLSSGKTETWNGKLLKIPPVSPSILDCSIIRVEYSLMVYVDIPGAMDLFLNLPLVIGTIPLHPFGSRTSSVSSQCSMNMNWLSLSLPERPEAPPSYAEVVTEEQRRNNLAPVSACDDFERALQGPLFAYIQEFRFLPPALYSEIDPNPDQSADDRPSCPSR [P392A] | disrupting interaction | disrupting interaction | decreasing interaction | disrupting interaction
6 | MVLGKVKSLTISFDCLNDSNVPVYSSGDTVSGRVNLEVTGEIRVKSLKIHARGHAKVRWTESRNAGSNTAYTQNYTEEVEYFNHKDILIGHERDDDNSEEGFHTIHSGRHEYAFSFELPQTPLATSFEGRHGSVRYWVKAELHRPWLLPVKLKKEFTVFEHIDINTPSLLSPQAGTKEKTLCCWFCTSGPISLSAKIERKGYTPGESIQIFAEIENCSSRMVVPKAAIYQTQAFYAKGKMKEVKQLVANLRGESLSSGKTETWNGKLLKIPPVSPSILDCSIIRVEYSLMVYVDIPGAMDLFLNLPLVIGTIPLHPFGSRTSSVSSQCSMNMNWLSLSLPERPEAAPSYAEVVTEEQRRNNLAPVSACDDFERALQGPLFAYIQEFRFLPPPLYSEIDPNPDQSADDRPSCPSR [P346A] | disrupting interaction | disrupting interaction | decreasing interaction | disrupting interaction
